From patent US5227469A, “Platelet aggregation inhibitors from the leech” (Genentech, Inc., priority 1990, dated 1993) come the findings set out here.

Where two headings read alike, the source gives them in different places. No end group written: not given here.

For series [1], the system named is human platelet rich plasma (PRP). As to the method: The Fg/GP IIb IIIa ELISA was performed as previously described (Dennis, M. S., Henzel, W. J., Pitti, R. M., Lipari, M. T., Napier, M. A., Deisher, T. A., Bunting S. and Lazarus, R. A. (1990) Proc. Natl. Acad. Sci. USA, 87, 2471-2475; and Seymour, J. L., Henzel, W. J., Nevins, B., Stults, J. T., and Lazarus, R. A. (1990) J. Biol. Chem. 265, 10143-10147).Platelet aggregation assays were carried out in human platelet rich plasma (PRP) as reported earlier (Dennis, M. S., Henzel, W. J., Pitti, R. M., Lipari, M. T., Napier, M. A., Deisher, T. A., Bunting, S. and Lazarus, R. A. (1990) Proc. Natl. Acad. Sci. USA, 87, 2471-2475; and Seymour, J. L., Henzel, W. J., nevins, B., Stults, J. T., and Lazarus, R. A. (1990) J. Biol. Chem. 265, 10143-10147).
Platelet aggregation assays were performed in PRP as follows:
50 ml whole human blood (9 parts) was drawn on 3.8% Na citrate (1 part) from a donor who had not taken any aspirin or related medication for at least two weeks. Blood was centrifuged at 160×g for 10 minutes at 22° C., allowed to stand for five minutes, and the PRP was decanted. Platelet poor plasma (PPP) was prepared from the remaining blood by centrifugation at 2000×g for 25 minutes at 22° C. PRP platelet count was measured on a Baker 9000 hematology analyzer and diluted to about 300,000 platelets/μL using PPP.
Light transmittance was recorded after the addition of ADP (8 μM), which initiated platelet aggregation. The inhibition of platelet aggregation was measured at the maximum aggregation response.

Series [2] addresses T1, GP IIb IIIa (Homo sapiens, UniProt P05106+P08514).
T1 construct: GP IIb IIIa was purified from outdated human platelets as previously described; from tissue; host or cells: outdated human platelets
Nature of the series: Fg/GP IIb IIIa solid phase ELISA (inhibition of GP IIb IIIa binding to immobilized fibrinogen). To be noted: for half maximal dilution / total units / specific activity (U/mg): Table III; for half maximal dilution: dilution giving half maximal response in ELISA, fractions from 310 g P. ornata; for total units: half maximal dilution multiplied by total volume in ml; for specific activity (U/mg): total units per mg total protein; for activity in GP IIb IIIa /Fg ELISA compared with decorsin purified from whole leech homogenate: specific activity (IC50). As to the method: The Fg/GP IIb IIIa ELISA was performed by a modification of the method of Nachman and Leung (Nachman, R. L. et al. (1982) J. Clin. Invest. 69, 263-269) according to the following protocol, with washes of phosphate buffered saline containing 0.01% Tween 20 between each step:
Microtiter plates were coated with purified human fibrinogen (10 μg/ml), washed, and then blocked with TACTS, 0.5% BSA. The plates were washed and samples to be evaluated were added, followed immediately by addition of purified GP IIb IIIa (40 μg/ml) in TACTS, 0.5% BSA (Calbiochem). After a 1 hr incubation, the plate was washed and AP3 (1 μg/ml) was added.
Following a 1 hr incubation and another wash, goat anti-mouse IgG conjugated to horseradish peroxidase was added. A final wash was performed, and developing reagent buffer (0.66 mg/ml o-phenylenediamine dihydrochloride, 0.012% H2 O2, 22 mM citrate, 50 mM phosphate, pH 5.0) added; plates were incubated until color developed.
The reaction was stopped with 1N H2 SO4 and the absorbance at 492 nm measured. A four parameter fit (Marquardt, D. W. (1963) J. Soc. Indust. Appl. Math 11, 431-441) was used to estimate the half maximal inhibition concentration.

Series [3] addresses T1, GP IIb IIIa. Nature of the series: Binding to immobilized GP IIb IIIa affinity resin, elution with EDTA. Particulars: eluted by EDTA. As to the method:
Immediately before coupling, approximately 10 ml Affi-Prep 10 resin was washed with 300 ml ice cold 50 mM sodium acetate, pH 4.5 in a coarse sintered glass funnel. After removing excess buffer, approximately 4 ml washed resin was transferred to a 15 ml conical tube containing 8 mg purified GP IIb IIIa which had been previously dialyzed into 0.1M sodium bicarbonate, 2 mM CaCl2, pH 8.0.
The coupling was carried out on a rocking platform at room temperature for 2 hours, and then overnight at 4° C. Excess reactive groups on the resin were blocked by incubation with 0.1M ethanolamine, 2 mM CaCl2, pH 9.0 for 1 hour at room temperature. The resin was then transferred to a sintered glass funnel, and washed in an alternating fashion with 20 ml aliquots of 0.1M sodium acetate, pH 4.5, and 0.1M Tris, pH 7.5, each containing 0.5M NaCl and 2 mM CaCl2, to remove any non-covalently bound material. A total of approximately 300 ml of each buffer was used in this cycle washing. Finally, the coupled GP IIb IIIa resin was washed with 100 ml 50 mM Tris, pH 7.5 containing 2 mM CaCl2 and stored at 4° C. prior to use.
The affinity column (ca. 4 ml of resin) was equilibrated in 50 mM Tris, pH 7.5 containing 2 mM CaCl2. The neutralized TFA pool was loaded onto the column at a flow rate of 0.5 ml/min and 25 ml fractions were collected. […]

The target in series [4] is glycoprotein IIb IIIa (GP IIb IIIa), purified from outdated human platelets (human) (UniProt P08514). In words: Fg/GP IIb IIIa ELISA, dilution of the 0.020 mg/ml fraction giving a half maximal response.
The target is the same in series [5]. In words: Fg/GP IIb-IIIa solid phase ELISA.
For series [6] the target is unchanged. In words: Fg/GP IIb IIIa ELISA units per mg protein.
For series [7] the target is unchanged. In words: Fg/GP IIb IIIa ELISA, dilution of the 0.024 mg/ml fraction giving a half maximal response.
The target is the same in series [8]. In words: Fg/GP IIb IIIa ELISA, dilution of the 0.018 mg/ml fraction giving a half maximal response.
Series [9] shares this target. Nature of the series: Fg/GP IIb IIIa ELISA, dilution of the 0.113 mg/ml fraction giving a half maximal response.
Series [10] shares this target. Nature of the series: Fg/GP IIb IIIa solid phase ELISA, inhibition of GP IIb IIIa binding to immobilized fibrinogen.
In series [11] the target is T2, GP IIb IIIa on human platelets (platelet rich plasma) (human, UniProt P08514). In words: cell-based or functional assay.
The target in series [12] is T2, GP IIb IIIa on human platelets …. In words: cell-based or functional assay. This is another data set of the same source.
Where [13] appears, read: four parameter fit, read-out: IC50 in GP IIb IIIa /Fg ELISA.
[14] abbreviates: Table VI, n in parenthesis, read-out: IC50 (nM) Fg/GP IIb-IIIa solid phase ELISA.

For “N-3 decorsin: isoform which lacks the first three amino terminal residues of decorsin (LPQCQGDDQEKCLCNKDECPPGQCRFPRGDADPYCE)”, in [1], the “activity in platelet aggregation assay compared with native decorsin” value is “Comparable activities”. Moreover, in series [2] (setting [13]), the IC50 was approximately 1.5 nM.

As to “IYVRPTKDELLYCGEFRELGQPDKKCRC [ornatin D, ornatin isoform from P. ornata]”, in [2], the half maximal dilution is 1032, the total units was determined as 516 and the “specific activity (U/mg)” value is reported as 49615 U/mg. The IC50 in series [2] (setting [14]) came out at 3.2 ± 0.35 nM.

Regarding “APRLPQCQGDDQEKCLCNKDECPPGQCRFPRGDADPYCE [decorsin, 39-amino acid RGD protein from the leech Macrobdella decora, GP IIb IIIa antagonist]”, the “activity in platelet aggregation assay compared with native decorsin” value in series [1] was “essentially identical”. Moreover, the IC50 in series [2] (setting [13]) was approximately 1.5 nM. Further, the “potency relative to pentapeptide GRGDV in GP IIb IIIa /Fg ELISA” value in series [2] (ratio of IC50 values) is “about 27 times”. In addition, the “activity in GP IIb IIIa /Fg ELISA compared with decorsin purified from whole leech homogenate” value in series [2] is recorded as “identical”; in series [2] (listed as synthetic native decorsin), “essentially identical”. Also, the results for the “binding to GP IIb IIIa receptor (words)” value in series [3] and in [3] (listed as Decorsin) were “bound” and “bind”, respectively.

Consider ornatin D, for which the half maximal dilution in series [4] was determined as 1030. This molecule also had an IC50 in series [5] of 3.2 nM. This molecule displayed a specific activity (U/mg) in series [6] of 49600 U/mg.

Consider ornatin B, for which the half maximal dilution in series [7] was 1220. Further, the IC50 in series [5] amounted to 3.5 nM. Moreover, the specific activity (U/mg) in series [6] stood at 50700 U/mg.

As to “IPQCRDVKESGQPNDKCRCNGKPCTVGKCTIARGDDNDKCT [ornatin A2, ornatin isoform isolated from P. ornata]”, the “activity of C18 rp HPLC peaks in Fg/GP IIb IIIa ELISA” value in [2] (FIG. 8 inset, rechromatography of ornatin A) was “active”. Further, in [2], the half maximal dilution came out at 809, the total units was determined as 405 and the “specific activity (U/mg)” value is given as 44505 U/mg. The IC50 in series [2] (setting [14]) turned out to be 5.1 nM.

Turning to “IYVRPTKDELLYCGEFRELGQPDKKCRCDGKPCTVGRCNFARGDNDDKCI [ornatin E, ornatin isoform isolated from P. ornata]”, in series [2], the half maximal dilution turned out to be 3610, the total units was found to be 1805 and the “specific activity (U/mg)” value worked out at 42370 U/mg. Also, the IC50 in series [2] (setting [14]) turned out to be 4.5 ± 0.77 nM.

In the case of “GRGDV [GRGDV, reference compound] [listing 1 of 2 here]”, in series [1] (read-out: IC50 in platelet aggregation assay, ADP (8 μM) induced, human PRP), the IC50 was approximately 75000 nM.

Take “IYVRPTKDELLYCGEFRELGQPDKKCRCDGKPCTVGRCKFARGDADDKCTSA [ornatin C, ornatin isoform isolated from P. ornata]”: in [2], the half maximal dilution is reported as 4422, the total units was 2211 and the “specific activity (U/mg)” value is 39060 U/mg. Also, the IC50 in [2] (setting [14]) turned out to be 4.9 ± 0.5 nM.

For the molecule kistrin [reference compound], the IC50 in series [1] (read-out: IC50 (nM) human platelet aggregation assay, Table VI, ADP activation, n in parenthesis) is 137 nM; in series [2] (setting [14]) it was 4.6 ± 0.06 nM.

With ornatin A2, the IC50 in series [5] came to 5.1 nM. This molecule yielded a half maximal dilution in series [8] of 809. Further, the specific activity (U/mg) in series [6] turned out to be 44500 U/mg.

As for “GRGDV [GRGDV, reference compound] [listing 2 of 2 here]”, the values for the IC50 in series [2] (setting [14]) and in [2] (setting [13]) were 47.5 ± 6.4 nM and approximately 40 nM, respectively.

In [9], ornatin C gave a half maximal dilution of 4420. This molecule yielded an IC50 in series [5] of 4.9 nM. This molecule returned a specific activity (U/mg) in series [6] of 39100 U/mg.

Take “IYVRPTNDELNYCGDFRELGQPDKKCRCDGKPCTVGRCKFARGDNDDKCISA [ornatin B, ornatin isoform isolated from P. ornata]”: in series [2], the half maximal dilution was determined as 1215, the total units was determined as 608 and the “specific activity (U/mg)” value was 50670 U/mg. For the same molecule, the IC50 in series [2] (setting [14]) was determined as 3.5 ± 0.25 nM.

Take GRGDV: the IC50 came to 40 nM in [10] and 47.5 nM in series [5]. Further, the “IC50, inhibition of ADP-induced platelet aggregation in human platelet rich plasma” value in [11] is approximately 75000 nM.

Turning to APRLPQCQGDDQEKCLCNKDECPPGQCRFPRGDADPYCE (other) [decorsin], the “IC50 (nM), human platelet aggregation assay (ADP activation)” value (“IC50 (nM)” below) in [12] turned out to be 314 nM. Besides, the “IC50, inhibition of ADP-induced platelet aggregation in human platelet rich plasma” value in series [11] was approximately 300 nM.

For IYVRPTKDELLYCGEFRELGQPDKKCRCDGKPCTVGRCNFARGDNDDKCI (other) [ornatin E], the “IC50 (nM)” value in [12] worked out at 516 nM.

B1: ornatin C (other)
chain: IYVRPTKDELLYCGEFRELGQPDKKCRCDGKPCTVGRCKFARGDADDKCTSA
On to B1, for which the “IC50 (nM)” value in series [12] turned out to be 324 nM.
